Laboratory results published in publication PMC314469, “Protein Interaction Networks by Proteome Peptide Scanning” (PLoS Biology, 2004).

Key:
Test in all cases: SPOT array
[1] = biological target: T1, Boi1 SH3 (BOI1_YEAST), P38041
T1 chain: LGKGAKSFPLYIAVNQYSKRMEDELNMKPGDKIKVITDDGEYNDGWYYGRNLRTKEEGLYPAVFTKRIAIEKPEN

[2] = biological target: T2, Boi2 SH3 (BOI2_YEAST), P39969
T2 chain: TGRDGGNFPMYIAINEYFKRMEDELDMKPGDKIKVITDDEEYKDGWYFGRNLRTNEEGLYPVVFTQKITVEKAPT

[3] = biological target: T3, Myo5 SH3 (MYO5_YEAST), Q04439
T3 chain: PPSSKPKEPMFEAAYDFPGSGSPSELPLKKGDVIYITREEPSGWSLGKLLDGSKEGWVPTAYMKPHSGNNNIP

[4] = biological target: T4, Rvs167 SH3 (RV167_YEAST), P39743
T4 chain: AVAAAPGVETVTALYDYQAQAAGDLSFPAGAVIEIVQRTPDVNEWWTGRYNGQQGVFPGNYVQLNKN

[5] = biological target: Sho1 SH3 (SHO1_YEAST), P40073
Sequence of Sho1 SH3 (SHO1_YEAST), P40073 (P40073 295-366): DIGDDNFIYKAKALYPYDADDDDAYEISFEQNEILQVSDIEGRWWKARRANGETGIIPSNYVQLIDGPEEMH

[6] = biological target: T5, Yfr024 SH3 (LSB3_YEAST), P43603
T5 chain: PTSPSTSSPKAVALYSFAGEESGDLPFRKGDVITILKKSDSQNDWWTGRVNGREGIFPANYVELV

[7] = biological target: T6, Yhr016c SH3 (YSC84_YEAST), P32793
T6 chain: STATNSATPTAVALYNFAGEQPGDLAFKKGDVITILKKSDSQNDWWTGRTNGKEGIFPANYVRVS

Binder | normalised SPOT signal, Boehringer light units (BLU); mean over the file's lines of this peptide [1] | normalised SPOT signal, Boehringer light units (BLU); mean over the file's lines of this peptide [2] | normalised SPOT signal, Boehringer light units (BLU); mean over the file's lines of this peptide [3] | normalised SPOT signal, Boehringer light units (BLU); mean over the file's lines of this peptide [4] | normalised SPOT signal, Boehringer light units (BLU); mean over the file's lines of this peptide [5] | normalised SPOT signal, Boehringer light units (BLU); mean over the file's lines of this peptide [6] | normalised SPOT signal, Boehringer light units (BLU); mean over the file's lines of this peptide [7]
MYDRKVIPRMPWHD [YKR031C 861-874] | 7810 | 395 | 357 | 1490 | 569 | 1600 | 742
MYGSKFIPFGPKSQ [YER038C 415-428] | 131 | 326 | 290 | 375 | 145 | 898 | 118
NAPERAVPILPPRN [YBR108W 539-552] | 3280 | 83 | 741 | 16500 | 52.7 | 24400 | 36600
NAPPRIFPKAPIYG [YDR283C 1060-1073] | 8550 | 40.1 | 168 | 156 | 140 | 2080 | 186
NAQLRKTPLEPGLE [YDL126C 668-681] | 156 | 88.8 | 176 | 116 | 48.6 | 371 | 79.9
NDDKKTEPDKPAFS [YJL041W 186-199] | 52.4 | 17.3 | 140 | 47.9 | 26 | 63.4 | 37.1
NDLVKRFPEQPPLR [YBR195C 105-118] | 75800 | 4920 | 21400 | 23000 | 12100 | 1590 | 1430
NDMAKPLPTPPTAE [YOR188W 2-15] | 71 | 54 | 114 | 56.7 | 13000 | 710 | 203
NDNEKKKPSSPTAA [YLL010C 80-93] | 212 | 61 | 98.5 | 80.7 | 39.5 | 36.9 | 20.6
NEFAKFAPDLPVLK [YFR038W 287-300] | 24.4 | 12.3 | 135 | 69 | 99.4 | 132 | 7.9
NELIKQGPKRPTSA [YMR072W 36-49] | 462 | 22 | 176 | 60.6 | 32.2 | 246 | 17.2
NELVKRFPGHPPLR [YHR108W 109-122] | 733 | 7.9 | 300 | 55.2 | 37.2 | 211 | 101
NESEKSSPWSPYKV [YBR156C 157-170] | 96.5 | 28.4 | 222 | 74.7 | 26.5 | 408 | 30.5
NFPQRMMPPPPGLV [YKL204W 475-488] | 228 | 28.4 | 618 | 67.9 | 74.5 | 679 | 95.9
NGKDKSRPPRPPPK [YIL095W 742-755] | 664 | 31.9 | 2620 | 127 | 2640 | 12900 | 162
NGMPRRIPDYPDAF [Q0045 434-447] | 404 | 318 | 223 | 338 | 28.9 | 1300 | 858
